According to paper PMC4822818, “An IRF5 Decoy Peptide Reduces Myocardial Inflammation and Fibrosis and Improves Endothelial Cell Function in Tight-Skin Mice” (PLoS ONE, 2016):

Biological target: T1, Recombinant IRF5 (interferon regulatory factor 5), biotin-labeled (UniProt Q13568 1-498, biotin (EZ-Link NHS-PEG4-Biotin, ratio 1:1))
T1 construct: Interferon regulatory factor 5 (IRF5), recombinant; also called B-IRF5; source: made and purified by Top Gene Technologies (Montreal, Quebec, Canada)
T1 sequence (looked up): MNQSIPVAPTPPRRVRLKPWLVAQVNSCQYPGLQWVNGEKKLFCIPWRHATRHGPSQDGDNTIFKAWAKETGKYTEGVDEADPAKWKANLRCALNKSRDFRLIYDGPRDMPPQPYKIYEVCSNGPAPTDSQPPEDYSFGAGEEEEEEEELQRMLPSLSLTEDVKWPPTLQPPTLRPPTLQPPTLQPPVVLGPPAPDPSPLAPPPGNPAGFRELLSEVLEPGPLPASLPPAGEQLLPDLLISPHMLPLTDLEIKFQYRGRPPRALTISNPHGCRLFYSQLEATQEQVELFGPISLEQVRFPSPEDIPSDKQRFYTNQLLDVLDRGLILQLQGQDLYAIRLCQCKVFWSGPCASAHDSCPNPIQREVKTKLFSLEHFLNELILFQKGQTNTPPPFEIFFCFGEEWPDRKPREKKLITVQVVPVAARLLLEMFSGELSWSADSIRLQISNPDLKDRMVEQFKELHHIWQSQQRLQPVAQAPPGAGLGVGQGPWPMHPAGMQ
Test: BLI; Octet RED; biotin-labeled IRF5 loaded onto streptavidin biosensors in PBS for 15 min; sensors incubated in PBS with increasing concentrations of IRF5D for 10 min; n = 3
Settings: both partners purified

- Kd: 3.72 µM
Binder: Ac-ELDWDADDIRLQIDNPD-NH2 [IRF5D (Ac-ELDWDADDIRLQIDNPD-NH2), IRF5 decoy peptide]
